Data on one molecule can be found in patent publication US8324357, “Universal fieldable assay with unassisted visual detection” (University of Southern California).

The target of one data set is VEGF165 (Homo sapiens, UniProt P15692-4 P15692-4:27-191). In words: EMSA; IC buffer, 3 mM CaCl2. Particulars: tags: R&D Systems or USB; chain copies: 2 (inferred). (In EMSA bound probe runs differently from free probe, usually more slowly.)
For data set [1], the target named is Russell's viper venom factor X activator (RVV-X) (UniProt Q7LZ61;Q4PRD1;Q4PRD2 Q7LZ61:189-619,Q4PRD1:24-146,Q4PRD2:25-158). As to the kind of experiment: EMSA. To be noted: tags: Haematologic Technologies.
Russell's viper venom factor X activator (RVV-X), sequence (Q7LZ61 189-619, chain 1 of 3): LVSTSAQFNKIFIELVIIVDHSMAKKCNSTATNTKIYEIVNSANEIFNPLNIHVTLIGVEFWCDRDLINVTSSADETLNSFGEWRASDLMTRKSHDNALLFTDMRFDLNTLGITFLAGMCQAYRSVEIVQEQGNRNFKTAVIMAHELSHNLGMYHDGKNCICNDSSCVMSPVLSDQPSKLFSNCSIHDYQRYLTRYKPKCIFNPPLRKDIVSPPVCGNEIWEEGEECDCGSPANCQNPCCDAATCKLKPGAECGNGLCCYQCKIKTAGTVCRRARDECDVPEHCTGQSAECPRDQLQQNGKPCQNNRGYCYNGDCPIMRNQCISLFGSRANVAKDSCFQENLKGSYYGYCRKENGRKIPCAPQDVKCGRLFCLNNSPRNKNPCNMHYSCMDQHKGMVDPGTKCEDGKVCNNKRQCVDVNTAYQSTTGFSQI
Russell's viper venom factor X activator (RVV-X), sequence (Q4PRD1 24-146, chain 2 of 3): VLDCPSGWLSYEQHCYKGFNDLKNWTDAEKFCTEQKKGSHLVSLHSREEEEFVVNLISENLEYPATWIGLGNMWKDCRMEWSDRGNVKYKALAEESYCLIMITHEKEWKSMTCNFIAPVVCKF
Russell's viper venom factor X activator (RVV-X), sequence (Q4PRD2 25-158, chain 3 of 3): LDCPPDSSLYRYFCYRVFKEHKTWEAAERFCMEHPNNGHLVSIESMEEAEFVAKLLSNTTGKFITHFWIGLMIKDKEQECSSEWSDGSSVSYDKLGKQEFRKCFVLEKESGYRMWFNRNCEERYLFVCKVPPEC

VEGF165, sequence (P15692 other isoform, or with tags, fused parts or gaps): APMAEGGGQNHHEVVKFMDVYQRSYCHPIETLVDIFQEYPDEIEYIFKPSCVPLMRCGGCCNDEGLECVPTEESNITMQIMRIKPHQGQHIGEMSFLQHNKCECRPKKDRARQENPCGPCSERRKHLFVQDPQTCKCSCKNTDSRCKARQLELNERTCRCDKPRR

B1: RNA132 (ssRNA)
RNA: GGGAGGGAAUCAGUGAAUGCUUAUACAUCCCUCCUUGAGCAGUCGAUUAGUUUCGACAGGAGGCUCAC
As a reminder, the Kd is the constant that tells how readily two partners part at equilibrium. Low readings indicate a tighter complex, high ones a looser complex. For B1, the Kd (in the data set with VEGF165; in data set [1]) was 5.7 nM each time.
